Data: article PMC6420115 (Science (New York, N.y.), 2018)
Where a chain is given by its changes, count along the chain named.

T1: NANP5 peptide (NANP 5-mer peptide of the PfCSP repeat) (Plasmodium falciparum (isolate NF54).)
T1 construct: source: bought: Alpha Diagnostic International
T1 chain: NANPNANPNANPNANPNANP

T2: NANP3 peptide (minimal NANP repeat peptide) (Plasmodium falciparum (isolate NF54).)
T2 construct: source: bought: PSL GmbH, Heidelberg
T2 chain: NANPNANPNANP

T3: minimal NANP3 peptide (Plasmodium falciparum (isolate NF54).)
T3 chain: NANPNANPNANP

B1: 1210 antigen-binding fragment (Fab) (Fab, V domains shown)
VH: QVQLVESGGGVVQPGRSLRLSCAASGFTFSNYGMHWVRQAPGKGLEWVAVIWYDGSKKYYADSVKGRFTISRDNSKNTLYLQMNSLRAEDTAVYYCARVRDSSDYYGDAFDIWGQGTMVTVSS
VL: DIQMTQSPSTLSASVGDRVTITCRASQSISSWLAWYQQKPGKAPKLLIYKASNLESGVPLRFSGSGSGTEFTLTISSLQPDDFATYYCQQYNNYWTFGQGTKVEIK
B2: 1210 IgG (antibody, V domains shown)
VH: B1 VH
VL: B1 VL
notes: IgG1; source: HEK293F, purified (Protein G Sepharose)
B3: 1210_YY IgG (1210 H.D100Ymut_K.N92Ymut) (antibody, V domains shown)
VH: B1 VH with D104Y
VL: B1 VL with N92Y
notes: as for B2
B4: 1210 germline antibody Fab (recombinant Fab for ITC) (Fab, V domains shown)
VH: B1 VH with N31S, K57N
VL: not shown
notes: source: HEK293F, transiently expressed, purified (KappaSelect, SEC)
B5: 1210 Fab (recombinant Fab for ITC) (Fab, V domains shown)
VH: B1 VH
VL: B1 VL
notes: as for B4
B6: 1210_H.K56_Nrev_K.N93_Srev Fab (recombinant Fab for ITC) (Fab, V domains shown)
VH: B1 VH with K57N
VL: B1 VL with N93S
notes: as for B4
B7: 1210 H.D100Ymut_K.N92Ymut Fab (recombinant Fab for ITC) (Fab, V domains shown)
VH: B1 VH with D104Y
VL: B1 VL with N92Y
notes: as for B4
B8: 1210_K. N93_S^rev (antibody, V domains shown)
VH: B1 VH
VL: B1 VL with N93S
B9: 1210_H.K56_N^rev (antibody, V domains shown)
VH: B1 VH with K57N
VL: B1 VL
B10: 2163 (antibody, V domains shown)
VH: QVQLVESGGGVVQPGRSLRLSCAASGFTFSSYGMHWVRQAPGKGLEWVAVIWYDGSNKYYADSVKGRFTISRDNSKNTLYLQMNSLRAEDTAVYYCARVQTTTGGGSCCPFDYWGQGTLVTVSS
VL: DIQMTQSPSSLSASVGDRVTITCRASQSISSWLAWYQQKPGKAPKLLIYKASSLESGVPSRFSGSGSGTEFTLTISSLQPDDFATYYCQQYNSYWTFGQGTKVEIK
B11: 2163_H.S31_Nmut (antibody, V domains shown)
VH: B10 VH with S31N
VL: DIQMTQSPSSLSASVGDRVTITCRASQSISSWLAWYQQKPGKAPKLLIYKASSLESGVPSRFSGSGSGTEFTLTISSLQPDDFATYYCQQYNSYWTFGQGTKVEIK
B12: 2163_H.V50_Imut (antibody, V domains shown)
VH: B10 VH with V50I
VL: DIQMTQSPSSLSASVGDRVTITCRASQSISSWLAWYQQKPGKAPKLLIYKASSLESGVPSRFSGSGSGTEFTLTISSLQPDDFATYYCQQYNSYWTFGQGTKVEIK
B13: 2163_H.N56_Kmut (antibody, V domains shown)
VH: B10 VH with N57K
VL: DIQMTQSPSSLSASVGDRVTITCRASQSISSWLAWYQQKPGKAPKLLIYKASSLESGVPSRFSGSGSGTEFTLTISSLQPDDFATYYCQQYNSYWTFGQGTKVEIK
B14: 1210_H.N31_Srev (antibody, V domains shown)
VH: B1 VH with N31S
VL: B1 VL
B15: 2163_KN (antibody, V domains shown)
VH: B10 VH with N57K
VL: B1 VL with T10S, N53S, L60S

The binders below were run against T4, full-length PfCSP with 38 NANP repeats (Plasmodium falciparum (isolate NF54)., UniProt P19597) (assay: SEC-MALS; 1210 Fab–PfCSP complex; molar mass from two measurements). Details: both partners purified.
T4 construct: also called circumsporozoite protein; NF54
T4 sequence (P19597 19-374): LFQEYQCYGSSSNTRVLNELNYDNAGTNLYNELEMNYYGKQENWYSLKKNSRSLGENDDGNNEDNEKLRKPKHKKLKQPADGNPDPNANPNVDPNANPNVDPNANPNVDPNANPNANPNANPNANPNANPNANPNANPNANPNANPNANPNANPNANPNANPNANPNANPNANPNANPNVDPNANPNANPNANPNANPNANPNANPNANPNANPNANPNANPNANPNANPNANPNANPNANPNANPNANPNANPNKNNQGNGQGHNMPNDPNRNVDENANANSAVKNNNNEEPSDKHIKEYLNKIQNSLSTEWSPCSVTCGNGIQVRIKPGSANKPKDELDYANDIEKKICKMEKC

Binder	stoichiometry N [Fabs per PfCSP]
B1	~12

Each binder was assayed against T5, full length PfCSP (NF54 strain) (Plasmodium falciparum (isolate NF54)., UniProt P19597) (assay: BLI). Details: both partners purified.
T5 construct: also called NF54 PfCSP; circumsporozoite protein; source: HEK293F, transient expression, purified (HisTrap Ni/NTA, SEC)
T5 sequence (P19597 19-374): as above

Binder	Kd [nM]
B2	< 0.001
B3	0.66

Molecular target: T1, NANP5 peptide (NANP 5-mer peptide of …)
Assay: ITC
Details: both partners purified

Binder	stoichiometry N
B4	1.9
B5	1.8
B6	1.7
B7	2.1

Molecular target: T2, NANP3 peptide (minimal NANP repeat …)
Assay: ITC
Details: both partners purified

Binder	stoichiometry N
B4	0.92
B5	0.73
B6	0.94
B7	0.88

Molecular target: T3, minimal NANP3 peptide
Assay: SPR; independent NANP3 SPR affinity measurements of original and mutated antibodies; who was immobilised is not given in the source
Details: both partners purified

Binder	binding result
B8	binds
B9	binds

Molecular target: T3, minimal NANP3 peptide
Assay: not given
Details: not given

Binder	binding result
B10	binds
B11	binds
B12	binds
B13	binds
B14	binds
B15	binds
